# B1: PTH1R-WT coupled to a C-terminal HaloTag (parathyroid hormone 1 receptor) [not stated] / β-arrestin2 WT C-terminally fused to Nanoluciferase [not stated] (parent)
# chain 1: MGEKPGTRVFKKSSPNCKLTVYLGKRDFVDHLDKVDPVDGVVLVDPDYLKDRKVFVTLTCAFRYGREDLDVLGLSFRKDLFIANYQAFPPTPNPPRPPTRLQERLLRKLGQHAHPFFFTIPQNLPCSVTLQPGPEDTGKACGVDFEIRAFCAKSLEEKSHKRNSVRLVIRKVQFAPEKPGPQPSAETTRHFLMSDRSLHLEASLDKELYYHGEPLNVNVHVTNNSTKTVKKIKVSVRQYADICLFSTAQYKCPVAQVEQDDQVSPSSTFCKVYTITPLLSNNREKRGLALDGKLKHEDTNLASSTIVKEGANKEVLGILVSYRVKVKLVVSRGGDVSVELPFVLMHPKPHDHIALPRPQSAATHPPTLLPSAVPETDAPVDTNLIEFETNYATDDDIVFEDFARLRLKGLKDEDYDDQFC
# chain 2: DADDVMTKEEQIFLLHRAQAQCEKRLKEVLQRPASIMESDKGWTSASTSGKPRKDKASGKLYPESEEDKEAPTGSRYRGRPCLPEWDHILCWPLGAPGEVVAVPCPDYIYDFNHKGHAYRRCDRNGSWELVPGHNRTWANYSECVKFLTNETREREVFDRLGMIYTVGYSVSLASLTVAVLILAYFRRLHCTRNYIHMHLFLSFMLRAVSIFVKDAVLYSGATLDEAERLTEEELRAIAQAPPPPATAAAGYAGCRVAVTFFLYFLATNYYWILVEGLYLHSLIFMAFFSEKKYLWGFTVFGWGLPAVFVAVWVSVRATLANTGCWDLSSGNKKWIIQVPILASIVLNFILFINIVRVLATKLRETNAGRCDTRQQYRKLLKSTLVLMPLFGVHYIVFMATPYTEVSGTLWQVQMHYEMLFNSFQGFFVAIIYCFCNGEVQAEIKKSWSRWTLALDFKRKARSGSSSYSYGPMVSHTSVTNVGPRVGLGLPLSPRLLPTATTNGHPQLPGHAKPGTPALETLETTPPAMAAPKDDGFLNGSCSGLDEEASGPERPPALLQEEWETVM
# Variants of: B1
# Experiment: NanoBRET recruitment assay in living cells
# Settings: with β-arrestin2 WT C-terminally fused to Nanoluciferase; HEK-WT + EV; point at the highest PTH(1-34) concentration (about 3 µM); parent: 7.5; read off a plot
row,Variant,response
1,chain 2 DADDVMTKEEQIFLLHRAQAQCEKRLKEVLQRPASIMESDKGWTSASTSGKPRKDKASGKLYPESEEDKEAPTGSRYRGRPCLPEWDHILCWPLGAPGEVVAVPCPDYIYDFNHKGHAYRRCDRNGSWELVPGHNRTWANYSECVKFLTNETREREVFDRLGMIYTVGYSVSLASLTVAVLILAYFRRLHCTRNYIHMHLFLSFMLRAVSIFVKDAVLYSGATLDEAERLTEEELRAIAQAPPPPATAAAGYAGCRVAVTFFLYFLATNYYWILVEGLYLHSLIFMAFFSEKKYLWGFTVFGWGLPAVFVAVWVSVRATLANTGCWDLSSGNKKWIIQVPILASIVLNFILFINIVRVLATKLRETNAGRCDTRQQYRKLLKSTLVLMPLFGVHYIVFMATPYTEVSGTLWQVQMHYEMLFNSFQGFFVAIIYCFCNGEVQAEIKKSWSRWTLALDFKRKARAGAAAYAYGPMVSHTSVTNVGPRVGLGLPLSPRLLPTATTNGHPQLPGHAKPGTPALETLETTPPAMAAPKDDGFLNGSCSGLDEEASGPERPPALLQEEWETVM [chain 2 S463A S465A S466A S467A S469A],6 fold change

# Same assay, conditions: with β-arrestin2 WT C-terminally fused to Nanoluciferase; HEK-WT cells; point at the highest PTH(1-34) concentration (about 3 µM); parent: 7.3; read off a plot
row,Variant,response
1,chain 2 DADDVMTKEEQIFLLHRAQAQCEKRLKEVLQRPASIMESDKGWTSASTSGKPRKDKASGKLYPESEEDKEAPTGSRYRGRPCLPEWDHILCWPLGAPGEVVAVPCPDYIYDFNHKGHAYRRCDRNGSWELVPGHNRTWANYSECVKFLTNETREREVFDRLGMIYTVGYSVSLASLTVAVLILAYFRRLHCTRNYIHMHLFLSFMLRAVSIFVKDAVLYSGATLDEAERLTEEELRAIAQAPPPPATAAAGYAGCRVAVTFFLYFLATNYYWILVEGLYLHSLIFMAFFSEKKYLWGFTVFGWGLPAVFVAVWVSVRATLANTGCWDLSSGNKKWIIQVPILASIVLNFILFINIVRVLATKLRETNAGRCDTRQQYRKLLKSTLVLMPLFGVHYIVFMATPYTEVSGTLWQVQMHYEMLFNSFQGFFVAIIYCFCNGEVQAEIKKSWSRWTLALDFKRKARAGAAAYAYGPMVSHTSVTNVGPRVGLGLPLSPRLLPTATTNGHPQLPGHAKPGTPALETLETTPPAMAAPKDDGFLNGSCSGLDEEASGPERPPALLQEEWETVM [chain 2 S463A S465A S466A S467A S469A],6 fold change

# Same assay, conditions: with β-arrestin2 WT C-terminally fused to Nanoluciferase; ΔQ-GRK + EV; point at the highest PTH(1-34) concentration (about 3 µM); parent: 1.7; read off a plot
row,Variant,response
1,chain 2 DADDVMTKEEQIFLLHRAQAQCEKRLKEVLQRPASIMESDKGWTSASTSGKPRKDKASGKLYPESEEDKEAPTGSRYRGRPCLPEWDHILCWPLGAPGEVVAVPCPDYIYDFNHKGHAYRRCDRNGSWELVPGHNRTWANYSECVKFLTNETREREVFDRLGMIYTVGYSVSLASLTVAVLILAYFRRLHCTRNYIHMHLFLSFMLRAVSIFVKDAVLYSGATLDEAERLTEEELRAIAQAPPPPATAAAGYAGCRVAVTFFLYFLATNYYWILVEGLYLHSLIFMAFFSEKKYLWGFTVFGWGLPAVFVAVWVSVRATLANTGCWDLSSGNKKWIIQVPILASIVLNFILFINIVRVLATKLRETNAGRCDTRQQYRKLLKSTLVLMPLFGVHYIVFMATPYTEVSGTLWQVQMHYEMLFNSFQGFFVAIIYCFCNGEVQAEIKKSWSRWTLALDFKRKARAGAAAYAYGPMVSHTSVTNVGPRVGLGLPLSPRLLPTATTNGHPQLPGHAKPGTPALETLETTPPAMAAPKDDGFLNGSCSGLDEEASGPERPPALLQEEWETVM [chain 2 S463A S465A S466A S467A S469A],1.8 fold change

# Same assay, conditions: with β-arrestin2 WT C-terminally fused to Nanoluciferase; ΔQ-GRK + GRK2; point at the highest PTH(1-34) concentration (about 3 µM); parent: 5; read off a plot
row,Variant,response
1,chain 2 DADDVMTKEEQIFLLHRAQAQCEKRLKEVLQRPASIMESDKGWTSASTSGKPRKDKASGKLYPESEEDKEAPTGSRYRGRPCLPEWDHILCWPLGAPGEVVAVPCPDYIYDFNHKGHAYRRCDRNGSWELVPGHNRTWANYSECVKFLTNETREREVFDRLGMIYTVGYSVSLASLTVAVLILAYFRRLHCTRNYIHMHLFLSFMLRAVSIFVKDAVLYSGATLDEAERLTEEELRAIAQAPPPPATAAAGYAGCRVAVTFFLYFLATNYYWILVEGLYLHSLIFMAFFSEKKYLWGFTVFGWGLPAVFVAVWVSVRATLANTGCWDLSSGNKKWIIQVPILASIVLNFILFINIVRVLATKLRETNAGRCDTRQQYRKLLKSTLVLMPLFGVHYIVFMATPYTEVSGTLWQVQMHYEMLFNSFQGFFVAIIYCFCNGEVQAEIKKSWSRWTLALDFKRKARAGAAAYAYGPMVSHTSVTNVGPRVGLGLPLSPRLLPTATTNGHPQLPGHAKPGTPALETLETTPPAMAAPKDDGFLNGSCSGLDEEASGPERPPALLQEEWETVM [chain 2 S463A S465A S466A S467A S469A],4.8 fold change
